Results published in article PMC9574740.
Like-named read-outs stand apart in the source and are kept apart here.

Key:
Assay in all cases: crystal structure
[1] = molecular target: Chaetomium thermophilum Ahp1, wild type (Chaetomium thermophilum)
[2] = molecular target: Chaetomium thermophilum Ahp1 C30S (Chaetomium thermophilum)
[3] = molecular target: Chaetomium thermophilum Ahp1 C30S (Chaetomium thermophilum); remark: listed apart in the source

| stoichiometry N [1] | stoichiometry N [2] | stoichiometry N [3] | Substance |
| --- | --- | --- | --- |
| 2 |  |  | Chaetomium thermophilum Ahp1, wild type (enzyme) |
|  | 2 | 2 | Chaetomium thermophilum Ahp1 C30S (enzyme) |
